Earlier results, collected in patent EP3351262A1, “CURAGLUTIDE FOR IN TREATMENT OF PREDIABETES, DIABETES, OBESITY AND METABOLIC DISEASES ASSOCIATED THERETO” (Istanbul Universitesi Rektorlugu, priority 2016, dated 2018).

Conditions: in vivo; cited from earlier work

For “GLP-1: glucagon like peptide-1, a neuroendocrine (intestinal) hormone with incretin effect”, the half-life in plasma is given as 12 to 30 min.
